# Data from IntAct's records for PubMed 29892012.
# B1: Protein VAC14 homolog (Homo sapiens), Q08AM6 (parent)
# chain: MNPEKDFAPLTPNIVRALNDKLYEKRKVAALEIEKLVREFVAQNNTVQIKHVIQTLSQEFALSQHPHSRKGGLIGLAACSIALGKDSGLYLKELIEPVLTCFNDADSRLRYYACEALYNIVKVARGAVLPHFNVLFDGLSKLAADPDPNVKSGSELLDRLLKDIVTESNKFDLVSFIPLLRERIYSNNQYARQFIISWILVLESVPDINLLDYLPEILDGLFQILGDNGKEIRKMCEVVLGEFLKEIKKNPSSVKFAEMANILVIHCQTTDDLIQLTAMCWMREFIQLAGRVMLPYSSGILTAVLPCLAYDDRKKSIKEVANVCNQSLMKLVTPEDDELDELRPGQRQAEPTPDDALPKQEGTASGGPDGSCDSSFSSGISVFTAASTERAPVTLHLDGIVQVLNCHLSDTAIGMMTRIAVLKWLYHLYIKTPRKMFRHTDSLFPILLQTLSDESDEVILKDLEVLAEIASSPAGQTDDPGPLDGPDLQASHSELQVPTPGRAGLLNTSGTKGLECSPSTPTMNSYFYKFMINLLKRFSSERKLLEVRGPFIIRQLCLLLNAENIFHSMADILLREEDLKFASTMVHALNTILLTSTELFQLRNQLKDLKTLESQNLFCCLYRSWCHNPVTTVSLCFLTQNYRHAYDLIQKFGDLEVTVDFLAEVDKLVQLIECPIFTYLRLQLLDVKNNPYLIKALYGLLMLLPQSSAFQLLSHRLQCVPNPELLQTEDSLKAAPKSQKADSPSIDYAELLQHFEKVQNKHLEVRHQRSGRGDHLDRRVVL
# partner: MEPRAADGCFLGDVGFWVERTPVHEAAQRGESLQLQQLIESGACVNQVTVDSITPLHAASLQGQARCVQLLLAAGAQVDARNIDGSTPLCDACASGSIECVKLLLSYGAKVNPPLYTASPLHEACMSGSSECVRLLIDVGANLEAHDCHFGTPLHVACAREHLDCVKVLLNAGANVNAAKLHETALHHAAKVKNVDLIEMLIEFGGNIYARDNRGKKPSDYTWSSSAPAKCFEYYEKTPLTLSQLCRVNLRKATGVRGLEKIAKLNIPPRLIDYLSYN
# B2: Zinc finger protein 64 (Homo sapiens), Q9NTW7 (parent)
# chain: MNASSEGESFAGSVQIPGGTTVLVELTPDIHICGICKQQFNNLDAFVAHKQSGCQLTGTSAAAPSTVQFVSEETVPATQTQTTTRTITSETQTITVSAPEFVFEHGYQTYLPTESNENQTATVISLPAKSRTKKPTTPPAQKRLNCCYPGCQFKTAYGMKDMERHLKIHTGDKPHKCEVCGKCFSRKDKLKTHMRCHTGVKPYKCKTCDYAAADSSSLNKHLRIHSDERPFKCQICPYASRNSSQLTVHLRSHTASELDDDVPKANCLSTESTDTPKAPVITLPSEAREQMATLGERTFNCCYPGCHFKTVHGMKDLDRHLRIHTGDKPHKCEFCDKCFSRKDNLTMHMRCHTSVKPHKCHLCDYAAVDSSSLKKHLRIHSDERPYKCQLCPYASRNSSQLTVHLRSHTGDTPFQCWLCSAKFKISSDLKRHMIVHSGEKPFKCEFCDVRCTMKANLKSHIRIKHTFKCLHCAFQGRDRADLLEHSRLHQADHPEKCPECSYSCSSAAALRVHSRVHCKDRPFKCDFCSFDTKRPSSLAKHVDKVHRDEAKTENRAPLGKEGLREGSSQHVAKIVTQRAFRCETCGASFVRDDSLRCHKKQHSDQSENKNSDLVTFPPESGASGQLSTLVSVGQLEAPLEPSQDL
# partner: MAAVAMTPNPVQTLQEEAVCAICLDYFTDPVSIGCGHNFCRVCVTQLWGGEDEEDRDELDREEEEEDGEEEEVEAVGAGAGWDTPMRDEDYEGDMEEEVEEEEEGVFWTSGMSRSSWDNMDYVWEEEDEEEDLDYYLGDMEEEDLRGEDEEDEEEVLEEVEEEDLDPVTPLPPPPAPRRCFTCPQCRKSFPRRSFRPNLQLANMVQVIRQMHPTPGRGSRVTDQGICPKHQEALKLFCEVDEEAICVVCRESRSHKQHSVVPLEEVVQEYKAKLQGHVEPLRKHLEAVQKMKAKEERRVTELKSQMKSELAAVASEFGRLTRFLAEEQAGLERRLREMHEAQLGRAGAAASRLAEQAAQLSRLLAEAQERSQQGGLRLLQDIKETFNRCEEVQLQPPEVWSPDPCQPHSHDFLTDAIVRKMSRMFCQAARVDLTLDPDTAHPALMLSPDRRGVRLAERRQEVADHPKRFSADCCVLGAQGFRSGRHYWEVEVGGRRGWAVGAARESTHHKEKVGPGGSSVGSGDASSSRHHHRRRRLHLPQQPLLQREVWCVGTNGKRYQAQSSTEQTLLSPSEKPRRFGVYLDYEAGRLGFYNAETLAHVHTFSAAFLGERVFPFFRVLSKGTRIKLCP
# B3: Casein kinase II subunit alpha (Homo sapiens), P68400 (parent)
# chain: MSGPVPSRARVYTDVNTHRPREYWDYESHVVEWGNQDDYQLVRKLGRGKYSEVFEAINITNNEKVVVKILKPVKKKKIKREIKILENLRGGPNIITLADIVKDPVSRTPALVFEHVNNTDFKQLYQTLTDYDIRFYMYEILKALDYCHSMGIMHRDVKPHNVMIDHEHRKLRLIDWGLAEFYHPGQEYNVRVASRYFKGPELLVDYQMYDYSLDMWSLGCMLASMIFRKEPFFHGHDNYDQLVRIAKVLGTEDLYDYIDKYNIELDPRFNDILGRHSRKRWERFVHSENQHLVSPEALDFLDKLLRYDHQSRLTAREAMEHPYFYTVVKDQARMGSSSMPGGSTPVSSANMMSGISSVPTPSPLGPLAGSPVIAAANPLGMPVPAAAGAQQ
# B4: UBX domain-containing protein 6 (Homo sapiens), Q9BZV1 (parent)
# chain: MKKFFQEFKADIKFKSAGPGQKLKESVGEKAHKEKPNQPAPRPPRQGPTNEAQMAAAAALARLEQKQSRAWGPTSQDTIRNQVRKELQAEATVSGSPEAPGTNVVSEPREEGSAHLAVPGVYFTCPLTGATLRKDQRDACIKEAILLHFSTDPVAASIMKIYTFNKDQDRVKLGVDTIAKYLDNIHLHPEEEKYRKIKLQNKVFQERINCLEGTHEFFEAIGFQKVLLPAQDQEDPEEFYVLSETTLAQPQSLERHKEQLLAAEPVRAKLDRQRRVFQPSPLASQFELPGDFFNLTAEEIKREQRLRSEAVERLSVLRTKAMREKEEQRGLRKYNYTLLRVRLPDGCLLQGTFYARERLGAVYGFVREALQSDWLPFELLASGGQKLSEDENLALNECGLVPSALLTFSWDMAVLEDIKAAGAEPDSILKPELLSAIEKLL
# partner: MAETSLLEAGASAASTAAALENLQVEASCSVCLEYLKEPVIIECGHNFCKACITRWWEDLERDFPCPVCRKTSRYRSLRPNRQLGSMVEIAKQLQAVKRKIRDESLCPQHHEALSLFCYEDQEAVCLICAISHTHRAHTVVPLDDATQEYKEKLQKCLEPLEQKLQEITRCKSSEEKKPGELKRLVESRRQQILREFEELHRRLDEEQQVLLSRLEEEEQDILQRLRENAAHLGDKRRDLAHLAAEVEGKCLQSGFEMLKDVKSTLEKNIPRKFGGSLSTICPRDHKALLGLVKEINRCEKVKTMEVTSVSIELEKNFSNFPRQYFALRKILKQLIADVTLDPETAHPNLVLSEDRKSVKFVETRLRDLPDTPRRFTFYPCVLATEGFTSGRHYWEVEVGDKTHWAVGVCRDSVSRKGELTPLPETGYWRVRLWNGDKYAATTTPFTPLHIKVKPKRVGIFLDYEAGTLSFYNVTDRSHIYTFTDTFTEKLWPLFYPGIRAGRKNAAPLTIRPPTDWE
# B5: Genetic suppressor element 1 (Homo sapiens), Q14687 (parent)
# chain: MKGMSHEPKSPSLGMLSTATRTTATVNPLTPSPLNGALVPSGSPATSSALSAQAAPSSSFAAALRKLAKQAEEPRGSSLSSESSPVSSPATNHSSPASTPKRVPMGPIIVPPGGHSVPSTPPVVTIAPTKTVNGVWRSESRQDAGSRSSSGGRERLIVEPPLPQEKAGGPAIPSHLLSTPYPFGLSPSSVVQDSRFPPLNLQRPVHHVVPPSTVTEDYLRSFRPYHTTDDLRMSSLPPLGLDPATAAAYYHPSYLAPHPFPHPAFRMDDSYCLSALRSPFYPIPTPGSLPPLHPSAMHLHLSGVRYPPELSHSSLAALHSERMSGLSAERLQMDEELRREREREREREREREADREREKEREREREKEREQEKEREREKERERELERQREQRAREKELLAAKALEPSFLPVAELHGLRGHATEERGKPSEQLTPTRAEKLKDAGLQAPKPVQHPLHPVPTPHHTVPSLISNHGIFSLPSSSAATALLIQRTNEEEKWLARQRRLRQEKEDRQSQVSEFRQQVLEQHLDMGRPPVPAEAEHRPESTTRPGPNRHEPGGRDPPQHFGGPPPLISPKPQLHAAPTALWNPVSLMDNTLETRRAESHSLHSHPAAFEPSRQAAVPLVKVERVFCPEKAEEGPRKREPAPLDKYQPPPPPPREGGSLEHQPFLPGPGPFLAELEKSTQTILGQQRASLPQAATFGELSGPLKPGSPYRPPVPRAPDPAYIYDEFLQQRRRLVSKLDLEERRRREAQEKGYYYDLDDSYDESDEEEVRAHLRCVAEQPPLKLDTSSEKLEFLQLFGLTTQQQKEELVAQKRRKRRRMLRERSPSPPTIQSKRQTPSPRLALSTRYSPDEMNNSPNFEEKKKFLTIFNLTHISAEKRKDKERLVEMLRAMKQKALSAAVADSLTNSPRDSPAVSLSEPATQQASLDVEKPVGVAASLSDIPKAAEPGKLEQVRPQELSRVQELAPASGEKARLSEAPGGKKSLSMLHYIRGAAPKDIPVPLSHSTNGKSKPWEPFVAEEFAHQFHESVLQSTQKALQKHKGSVAVLSAEQNHKVDTSVHYNIPELQSSSRAPPPQHNGQQEPPTARKGPPTQELDRDSEEEEEEDDEDGEDEEEVPKRKWQGIEAVFEAYQEHIEEQNLERQVLQTQCRRLEARHYSLSLTAEQLSHSVAELRSQKQKMVSERERLQAELDHLRKCLALPAMHWPRGYLKGYPR
# partner: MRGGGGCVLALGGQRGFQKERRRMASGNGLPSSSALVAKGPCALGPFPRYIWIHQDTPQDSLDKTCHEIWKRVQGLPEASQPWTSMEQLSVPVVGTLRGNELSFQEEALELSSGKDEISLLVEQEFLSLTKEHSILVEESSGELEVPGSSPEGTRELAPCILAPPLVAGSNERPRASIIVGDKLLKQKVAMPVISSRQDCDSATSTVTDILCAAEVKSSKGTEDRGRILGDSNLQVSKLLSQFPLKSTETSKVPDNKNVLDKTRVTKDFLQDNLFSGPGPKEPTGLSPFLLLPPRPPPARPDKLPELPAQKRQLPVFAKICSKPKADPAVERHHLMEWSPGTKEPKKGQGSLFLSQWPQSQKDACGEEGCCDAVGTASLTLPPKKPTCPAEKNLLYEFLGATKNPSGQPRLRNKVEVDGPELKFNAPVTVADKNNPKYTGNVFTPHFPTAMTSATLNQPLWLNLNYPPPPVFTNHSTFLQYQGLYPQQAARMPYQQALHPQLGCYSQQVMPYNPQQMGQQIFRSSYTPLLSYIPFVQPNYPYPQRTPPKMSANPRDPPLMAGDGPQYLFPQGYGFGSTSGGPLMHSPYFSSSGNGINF
# Variants of: B1
# Conditions: with asb13_human ASB13, Q8WXK3
row,Variant,effect of a mutation on the interaction
1,A127S,with no effect

# Variants of: B2
# Conditions: with tri41_human TRIM41, Q8WV44
row,Variant,effect of a mutation on the interaction
1,D227E,with no effect

# Variants of: B3
# Conditions: with nfya_human NFYA
row,Variant,effect of a mutation on the interaction
1,K198R,with no effect

# Variants of: B4
# Conditions: with tri39_human TRIM39, Q9HCM9
row,Variant,effect of a mutation on the interaction
1,E391K,disrupting interaction strength

# Variants of: B5
# Conditions: with ca094_human C1orf94, Q6P1W5
row,Variant,effect of a mutation on the interaction
1,E368K,with no effect
